From patent US20090004214A1 (COMMISSARIAT A L ENERGIE ATOMIQUE, published 2009) come the findings set out here.

Experiment [1] addresses T1, HLA-DR3 molecule (DRB1*0301) (human).
T1 construct: HLA class II heterodimer
The experiment is described as follows: competitive ELISA, tracer MT 2-16. (In general: In an ELISA, binding on a coated surface is turned into a signal by an enzyme label.)

Experiment [2] addresses T2, HLA-DR13 molecule (DRB1*1301) (human).
T2 construct: HLA class II heterodimer
The experiment is described as follows: competitive ELISA, tracer B1 21-36.

Experiment [3] deals with T3, HLA-DR1 molecule (DRB1*0101) (human).
T3 construct: HLA class II heterodimer
The experiment is described as follows: competitive ELISA, tracer HA 306-318.

The target in experiment [4] is T4, HLA-DR11 molecule (DRB1*1101) (human).
T4 construct: HLA class II heterodimer
In words: competitive ELISA, tracer HA 306-318.

The target of experiment [5] is T5, HLA-DR4 molecule (DRB1*0401) (human).
T5 construct: HLA class II heterodimer
The experiment is described as follows: competitive ELISA, tracer HA 306-318.

Experiment [6] concerns the target T6, HLA-DRB5 molecule (DRB5*0101) (human).
T6 construct: HLA class II heterodimer
In words: competitive ELISA, tracer HA 306-318.

Experiment [7] has as its target T7, HLA-DR15 molecule (DRB1*1501) (human).
T7 construct: HLA class II heterodimer
In words: competitive ELISA, tracer A3 152-166.

Experiment [8] deals with T8, HLA-DR7 molecule (DRB1*0701) (human).
T8 construct: HLA class II heterodimer
The experiment is described as follows: competitive ELISA, tracer YKL.

The target in experiment [9] is T9, HLA-DRB4 molecule (DRB4*0101) (human).
T9 construct: HLA class II heterodimer
In words: competitive ELISA, tracer E2/E168.

Experiment [10] addresses T10, HLA-DP402 molecule (DPB1*0402) (human, UniProt P20036 29-222, limits assumed).
T10 construct: HLA class II heterodimer; also called DP*0402
The experiment is described as follows: competitive ELISA, tracer Oxy 271-287.

Experiment [11] concerns the target T11, HLA-DP401 molecule (DPB1*0401) (human, UniProt P20036 29-222, limits assumed).
T11 construct: HLA class II heterodimer; also called DP*0401
The experiment is described as follows: competitive ELISA, tracer Oxy 271-287.

Experiment [12] deals with T12, HLA-DRB3 molecule (DRB3*0101) (human).
T12 construct: HLA class II heterodimer
The experiment is described as follows: competitive ELISA, tracer LOL 191-210.

Experiment [13] concerns the target T13, HLA-DR13 molecule (DRB1*1301) (human).
T13 chain 1: not shown
T13 chain 2: not shown
In words: competitive ELISA, tracer B1 21-36.

For experiment [14] the target is unchanged. In words: competitive ELISA, nonbiotinylated peptide vs its biotinylated tracer.

No end group written: not given here.

A word on the IC50: it is the concentration needed to halve the response being measured. Read a high IC50 as lower potency.

On to CAFLSVKKQFEELTL (synthetic 15-mer) [survivin peptide 84-98], for which the IC50 in experiment [1] is 2.57 µM; in experiment [2], 0.845 µM; in [3], 2.83 µM; in experiment [4] it was 0.01 µM; in experiment [5] it was 19 µM; in [6], 1.77 µM. The IC50 in experiment [7] was 0.574 µM; in experiment [8], 0.179 µM; in experiment [9] it was 1.33 µM; in experiment [10], 0.113 µM; in [11] it was 0.167 µM; in experiment [12], 11.8 µM.
With TERVRLVTRHIYNREE (not fully specified) [B1 21-36 peptide (nonbiotinylated)], the figures for the IC50 in experiment [13] and in [14] were 0.609 µM and 0.8 µM, respectively.
For QPFLKDHRISTFKNW (synthetic 15-mer) [survivin peptide 11-25], the IC50 in experiment [1] turned out to be 65 µM; in experiment [2], 2.41 µM; in experiment [3] it was 6 µM; in [4], 0.329 µM; in experiment [5] it was 45 µM; in [6] it was 2.26 µM. The IC50 was 0.022 µM in experiment [7]; 8 µM in [8]; 75 µM in experiment [9]; 25 µM in [10]; 33 µM in [11]; 3.67 µM in experiment [12].
